The record followed here is the DeepSol protein solubility set.

The series is described as follows: soluble on expression in E. coli; label from the status in PepcDB or PDB records.
In the case of “MGSDKIHHHHHHMTQAITMPDNPGADCIIEAGIVLTGLDAGSGLTGLGADGKMTMRHDVGIRVEKGMIAQIGPMEAVGYGNDHLPRFGSRRMIAMPGLVNAHHHFGVTPLMQGVPFAPLELWLPQFRAMRRIDQRLDTLYSAIEMLESGTTTVQHIHSGFSGTPDSWMQTAEATISAYGEIGMRLGYCFMIRDRNILSYEPDADILSRLPAKLRDWIAPQLAAADIPVPRLMEFYTDLRARFMKGSPQHIRMNLAPANLHWCSDNALQTIFETAKAAGGNVHMHLLETERQAEFARRTYGRSAVQHLQKLQCLDANVTLGHGNWMSGEDLDIIASCGCTICHNASSGLRLGSGIAPVNEMRRRGIPVALGIDQSNIADDRDMTLEMKLVWALHRETGLWNDRPDAGAVLQMASEHGAASAGFGGFTGRLEPGWQADIVLMDKDRIARPAINSRTPPVEALLHRGGRHAIEQVFVGGRLVVDGGRVTTVDRDAVMAEIEAILSRPETDAERYAWQAVETLLPHLESSLQQLGLGAGYRRYRYNSMSDQ”, the “soluble on expression in E. coli” value is given as “not soluble”. For “MAHHHHHHMDCQALAKSLEQMNHLHNVKYLEAKDLTDFNQKSAYYICHQIAEKQLSKEGGHVVIGLSGGKTPIDVYKNIALVKDIKIDTSKLIFFIIDERYKRDDHKFSNYNNIKFLFESLKINEKEQLYRPDTSKNIVECVRDYNEKIKNMVKKYTKVDIAILGMGSDFHIASLFPNIFFNIYMNNYQNSYIYDESSIKVANSNDTSDNDNLDLLKEYVYFTTTNNFDVRKRITVSLDLLGNASSKIFLLNSTDKLDLWKNMLLKSYVDVNYCLYPAVYLIDSMNTTVVTCGYTNYPQMLEDIYVSNSSLS”, the “soluble on expression in E. coli” value was “soluble”.

As to “MGSDKIHHHHHHMAEKVDYAALKKGGFMRQKQKGCFSLRIAVVGGNLTAENIKTVAEVAEKYGHGYVHMTSRQGIEIPFIKVEDINVVKEELAKGGVGTGVCGPRVRTVTACQGSEICPSGCIDTYTLAKELDERYFGRELPHKFKFGVTGCQNNCLKAEENDVGIKGGMTVECSHDDCIQCGVCVKACREGALSMEDGRIVIDRDKCNNCARCVKSCPTDAWKGTPGYIVSFGGLFGNHIYKGEQLVPIIRDKETLFRVTDAAISFFEKHANGGERFRLTLQRVGEEEFKKEIQAAYEGK”, the “soluble on expression in E. coli” value is listed as “not soluble”. The result for “MEAYDICKFWKLDMLEEFSQIVLKGKKKIILDIPSPSQQNKSDIVSLCPADSPETCNSSIPDWLVKVMRKENGYDPKLIIKRRVLCTTDLRKNQGCLSMHLSKLEKSDFLTEDETRFLDEDFLKAKRDGLKVFLVDPESDKHVVYLKKWNGNTVWKYVLSHGWNNVIDKKIFKVNDVIEIWSFRDGSGKLCFALSSPTRCGRSSSGHSS” reads “soluble”. Consider “MKQEFSSIQFKAALLAAGLVLQVPAHANDGTIVITGAITDTTCIIEDPSDPNHTKVVQLPKISKSALKVKGDQAGRTPFTISLRDCPADLGNGVKVYFEPGPTTNYATGDLKAYKLAYATNPKATPLNSIVAATPATGVEIRISNLDDSKIPMGVDVTNQRAQGFNPVEQTGDTNKRTVTMRYLASYVKADGDIQASAITTYVGFSVVYP”, for which the “soluble on expression in E. coli” value is “not soluble”. The same measure for “MAHHHHHHMRTDKCVSEAVQTFREAQNLLPTLYTHLSALENIMTQKGALVGAARRREQCFAKALPASHFLCMDTGTEERTLPQATTAGPSCVHTTSPVMTSPLGVLAAFSASTVHHLVAQHQRDVEELLGVVSRITQRSWSQKVEQLKSKIAQLERASEVGETPEHPPSAGGIVAVSSTPASSSYFATASELSVALYGFAACLLKMGNVLQETMLALRKDARLSLMAHAAPGSAALLTSTSADTASHLAAMLAREDRTSEGMSLLPMHSSHCGSLHEATSASSPFSGAAGVQAAPLQPMRLVDAVGKLKSFLEARWKSCCDSYLAPESHLLLALV”: “soluble”; for “MKVYIVEHAIGSFAYDEQGKLIDFVLSSKDLGKVVDSLLDNEKGIPLPTTIELIQKIKPEEVVVENEAEIPNLQQLGVKASYEIHNLGSKIFRESLPKIAIETKFASSENDLYSFLYEVSFEYTRRKLRTAASKRDLLAIQAIRAIDDIDKTINLFSERLREWYSIHFPELNKLVEDHELYASIVSKFGHRDEITNTGLDEIGVNKDLSTKILDASKKSIGADITDVDIRSIKMLSDTILELFRIRSELTDYVESVMKEVAPNVTALVGPTLGARLLSLAGSLEDLAKMPASTIQVLGAEKALFRALRKGGKPPKHGVIFQYPAIHTSPRWQRGKIARALAAKLAIAARIDAFSGRFIGDKLNEELKKRIEEIKTKYAQPPPRKPQEQKRKEEERKGKKGGREKRKGRR”: “soluble”; for “MSQLPTDFASLIKRFQFVSVLDSNPQTKVMSLLGTIDNKDAIITAEKTHFLFDETVRRPSQDGRSTPVLYNCENEYSCINGIQELKEITSNDIYYWGLSVIKQDMESNPTAKLNLIWPATPIHIKKYEQQNFHLVRETPEMYKRIVQPYIEEMCNNGRLKWVNNILYEGAESERVVYKDFSEENKDDGFLILPDMKWDGMNLDSLYLVAIVYRTDIKTIRDLRYSDRQWLINLNNKIRSIVPGCYNYAVHPDELRILVHYQPSYYHFHIHIVNIKHPGLGNSIAAGKAILLEDIIEMLNYLGPEGYMNKTITYAIGENHDLWKRGLEEELTKQLERDGIPKIPKIVNGFK”: “soluble”. The same measure for “MKELKQAEQIRTWVQSILTDESSGHDWHHVSRVADLAAYIGEKEKADLFIVETAALVHDLIDVKLPDTVRLSVSEVYDQLVFFGVGKENADRVIHIITRMSFRDRGKLAKEPLSIEGKAVQDADRLDAIGAVGIARAFMFAGAKGHGLYGDEQSAYAHFFHKLLRLKDMMNTDTARELAEERHNFMLQFVRQLEKDIPGIDAETSLEHHHHHH”: “soluble”; for “MTKPLVIFGSGDIAQLAHYYFTRDSEYEVVAFTVDRDYASVSEFCGLPLVAFDEVAQRFPPESHAMFVALAYAKLNGVRKEKYLAAKALGYELASYVSSHATVLNDGRIGENVFLLEDNTIQPFVSIGNNVTLWSGNHIGHHSTIHDHCFLASHIVVSGGVVIEEQSFIGVNATLRDHITIGSRCVVGAGALEHHHHHH”: “not soluble”; for “MRVFYDKDCDLSIIQGKKVAIIGYGSQGHAHACNLKDSGVDVTVGLRSGSATVAKAEAHGLKVADVKTAVAAADVVMILTPDEFQGRLYKEEIEPNLKKGATLAFAHGFSIHYNQVVPRADLDVIMIAPKAPGHTVRSEFVKGGGIPDLIAIYQDASGNAKNVALSYACGVGGGRTGIIETTFKDETETDLFGEQAVLCGGCVELVKAGFETLVEAGYAPEMAYFECLHELKLIVDLMYEGGIANMNYSISNNAEYGEYVTGPEVINAESRAAMRNALKRIQDGEYAKMFITEGAANYPSMTAYRRNNAAHPIEQIGEKLRAMMPWIAANKIVDKSKN”: “soluble”. The same measure for “MGSDKIHHHHHHMSLCYEEALFLEKDLERLKALRTIAPMNEILDHAEVAALAEGIGKAVLGETITQVIDDYRKQLLGDKSFAASMSHLSRQEITLHLVQELKDKLDAQDSTCLKKLINATGIVLHTNLGRAPLPDSAIGLIQEVNEGYSNLEFDLETGNRGSRHTHIEPLITRLTGAESAMVVNNNAAAVFISLNTLAKQRDVIISRGQQVEIGGSFRIPDIIASSGCTMIEVGTTNKTKPDDYAKAITENTAVLLKVHTSNYKISGFTEEVPLQDLVELGKIKNVLVMEDLGSGCLYDLSKIGLPHEPTVQEVIAGGADLVTFSGDKLLGGPQIGVIAGKKALIDKIKKNSFARIVRCDKSSIAALTAVLKLYMNPEKALAQIPALNMLALKEADLLLRAEELERQLQAALGERCQVEIVDVHDEAGGGSLPDVLLKGKAVSLTIDGLSANRLQELLRQEPIPIICRIVKDKVLLNVRTMSEKEFPLITQTMQNIVG”: “not soluble”; for “MGSDKIHHHHHHMDVWLQLLQAEPELRSLTDWNRLATRYTDSPKYTARDASGVFIIHTAPLASLARKKREFELLQQLRHDGLPVPEPLDLKQISATAVCYSRYRFLTGKTIQACLPLCRDKAYRLGQETGRLLQWIHQHEVPRATEWAIRCLEKHKRYVALYQAERPLTDDSIILSFIERNIHLIAGRPNRLQHDDVHLGNLITDGEHLVGLIDFSNHDVGDPWHDFVKMGLFQVDDSIPFAVGQVDGYFARDVPELFWRVYSVYLAMACISSIVWTSRHAPEETDQMRRRFECAVPIWYATFDRT”: “not soluble”; for “MSELLQYSRIKYECTCGKFRTLPDLVFCRYCFKIKCDDCSLGEVDNIFCPRCLEPSSVPEARLKKHKCASCNDCPKCANVLSARTENDNVYLVCQYCRWSSREANQEDQENTKSWPTKENPLVNQLGEVTAYMKRLELIENAPKDLKKGKSGKAWTAFHLKDKFGFQQMVDKRKKALAPEMNPVDAHAPTEAPTLEDEIKERTDDLRTLDQIIMQPLINISEPLLPVQVPLAGRVQVRCDECERTLIKRDFGVTTFKFKISSFARQFVPDIRMSRPVDDLKVGETSHVFLSITNLSSSAMDLTIAPQSGNGFIQCSSDPIQLLLPSSRASDTAAPGVHADQSDVIVFRQHNRVGLRLDVIPTEMDLSSPCLNLLITYCQDGSFRLSSASDKILKPEETCPDPILSANLKVDLR”: “not soluble”. As for “AMGVPCVEDEDFIQALDKMMLENLQQRSGESVKVHQLDVAIPLHLKSQLRKGPPLGGGEGEAESADTMPFVMLTRKGNKQQFKILNVPMSSQLAANH”, the “soluble on expression in E. coli” value was “soluble”. With “MGSDKIHHHHHHMEEEAIVPEVLLDKAIELGLSFTGSTFPISIFPSEIRNIIAEVHECQGFPIDYIASAMLVAIAVGIGNTHLAELKRGWQESTMLYVALVGRPGTNKSHPLSFAMKPFLDFDYQENKLYERSYAEYDNIMRMNRKERIEGGFPDQPTEPMRKRFLVSDITPEGLSFIHAQNKRGLCLWTDELSAWFKNFNRYNSGSEEQFWLSVFSAKATISDRKGNRSSIFIKRPYISVVGTIQKKILGELSKGERSSNGFIDRILFVMPNLQQKARWSRTELPDDTEKRWGGIIRRLIDLPCAKDEEGEVTPEIIPFEEDAKARLYMWQEEHARLCDTEANEVLVGVYCKLEIYIIRFCLIIQLARWVCGESEKSAIDLTSVERAITLTEYFRHSAQQVHAEIAGVQLTQQQQQLLAELPASFQTAEALSIAQKLGMKERAFKDFLSRNIGHLFAKERHGLYHKLNM”, the “soluble on expression in E. coli” value is reported as “not soluble”. The same measure for “MGHHHHHHSHMQSYLPNDTVESGIHPVYFCSTHYIEMLLKAELPLVFSAFHMSGFAPSQICLQWITQCFWNYLDWIEICHYIATCVFLGPDYQVYICIAVFKHLQQDILQHTQTQDLQVFLKEEALHGFRVSDYFEYMEILEQNYRTVLLRDMRNIRLQST”: “not soluble”; for “MGSDKIHHHHHHMKRKTLPKLLYADAKGNIFDHPHLCMAGMSGSEAVLPESVELIPLPEGSRLFTIPDTPPVAWDEQQRKFVTVASVREGRRPMPVQAVSAFMAPGYVRLLLPACDYSRKKVHLPLWSYTAVGWDEERDCFVVAASRVDTNQNWNPCNYDDRKLDPLVRQRLAEMPHNRLLEQLARCAVDYHCFAAKNLFFRRWEAPLPTSPACNSRCLGCISLQPSDCCPANHERIGFVPTPEEIVELALPHLLEAPEPIVSYGQGCEGDPIMQADTVAEATRRLKAATSRGTVNFNSNGSFPDRIAMLCDAGMDSMRFSMNSVREEVYDRYYRPVGYRFAEVKESVRLAGERGLFTMINYLVSPGVSDSADEVEALLRFIGETGVKMIQMRNLSIDPDFYNKRMGATGRGIGMYRMLERVKREFPHIQYGYYNRTRENFFPAGYEKGWPIR”: “not soluble”.
